Starred links: 1 amine or outer side, 2 acyl side, 3 side chain; linkers in the order of their positions; H or OH if unused. Positions of bridges follow the written chain, without caps; N, C: chain ends. Non-standard residues stand in square brackets, D forms with d. *: point of attachment. cholesteryl‑oxycarbonylmethyl = CC(C)CCC[C@@H](C)[C@H]1CC[C@H]2[C@@H]3CC=C4C[C@@H](OC(=O)C*)CC[C@]4(C)[C@H]3CC[C@]12C; B21 = 2,7-dimethylnaphtyl, c1cc2ccc(C[*:2])cc2cc1C[*:1]; pXylylene = c1cc(C[*:2])ccc1C[*:1]; Suc = O=C(CCC(=O)[*:2])[*:1]; hCys = N[C@@H](CCS)C(=O)O; B1 = not defined here; Butyryl = CCCC(=O)*
Molecular target: gp41 of HIV-1 strain HXB2D with mutation V38A (HIV-1 strain HXB2D, UniProt P04578)
Assay: cell-based or functional assay

Binder | fold change in EC50, HIV-HXB2D V38A mutant
Suc-ECYLRCIEELIRKAQEQQEKNEAALRGSGC(cholesteryl‑oxycarbonylmethyl)-NH2 (linker 2-6 via pXylylene; SMILES CC[C@H](C)[C@H](NC(=O)[C@H](CC(C)C)NC(=O)[C@H](CCC(=O)O)NC(=O)[C@H](CCC(=O)O)NC(=O)[C@@H](NC(=O)[C@@H]1CSCc2ccc(cc2)CSC[C@H](NC(=O)[C@H](CCC(=O)O)NC(=O)CCC(=O)O)C(=O)N[C@@H](Cc2ccc(O)cc2)C(=O)N[C@@H](CC(C)C)C(=O)N[C@@H](CCCNC(=N)N)C(=O)N1)[C@@H](C)CC)C(=O)N[C@@H](CCCNC(=N)N)C(=O)N[C@@H](CCCCN)C(=O)N[C@@H](C)C(=O)N[C@@H](CCC(N)=O)C(=O)N[C@@H](CCC(=O)O)C(=O)N[C@@H](CCC(N)=O)C(=O)N[C@@H](CCC(N)=O)C(=O)N[C@@H](CCC(=O)O)C(=O)N[C@@H](CCCCN)C(=O)N[C@@H](CC(N)=O)C(=O)N[C@@H](CCC(=O)O)C(=O)N[C@@H](C)C(=O)N[C@@H](C)C(=O)N[C@@H](CC(C)C)C(=O)N[C@@H](CCCNC(=N)N)C(=O)NCC(=O)N[C@@H](CO)C(=O)NCC(=O)N[C@@H](CSCC(=O)O[C@H]1CC[C@@]2(C)C(=CC[C@H]3[C@@H]4CC[C@H]([C@H](C)CCCC(C)C)[C@@]4(C)CC[C@@H]32)C1)C(N)=O) [peptide 82] | 1 fold
Ac-ANYAALIEALIRKAQEQQEKNEAALR-NH2 [peptide 5] | 53 fold
Ac-[dA]CYAACIEALIRAAQEQQEKNEAAL[dR]-NH2 (linker 2-6 via 2,7‑dimethylnaphthyl) [peptide 75] | 21 fold
Ac-A[hCys]YAA[hCys]IEALIRKAQEQQEKNEAALR-NH2 (linker 2-6 via B21; SMILES CC[C@H](C)[C@H](NC(=O)[C@@H]1CCSCc2ccc3ccc(cc3c2)CSCC[C@H](NC(=O)[C@H](C)NC(C)=O)C(=O)N[C@@H](Cc2ccc(O)cc2)C(=O)N[C@@H](C)C(=O)N[C@@H](C)C(=O)N1)C(=O)N[C@@H](CCC(=O)O)C(=O)N[C@@H](C)C(=O)N[C@@H](CC(C)C)C(=O)N[C@H](C(=O)N[C@@H](CCCNC(=N)N)C(=O)N[C@@H](CCCCN)C(=O)N[C@@H](C)C(=O)N[C@@H](CCC(N)=O)C(=O)N[C@@H](CCC(=O)O)C(=O)N[C@@H](CCC(N)=O)C(=O)N[C@@H](CCC(N)=O)C(=O)N[C@@H](CCC(=O)O)C(=O)N[C@@H](CCCCN)C(=O)N[C@@H](CC(N)=O)C(=O)N[C@@H](CCC(=O)O)C(=O)N[C@@H](C)C(=O)N[C@@H](C)C(=O)N[C@@H](CC(C)C)C(=O)N[C@@H](CCCNC(=N)N)C(N)=O)[C@@H](C)CC) [peptide 79] | 27 fold
Ac-ACYAACIEALIRAAQEQQEKNEALLR-NH2 (linker 2-6 via pXylylene; SMILES CC[C@H](C)[C@H](NC(=O)[C@H](CC(C)C)NC(=O)[C@H](C)NC(=O)[C@H](CCC(=O)O)NC(=O)[C@@H](NC(=O)[C@@H]1CSCc2ccc(cc2)CSC[C@H](NC(=O)[C@H](C)NC(C)=O)C(=O)N[C@@H](Cc2ccc(O)cc2)C(=O)N[C@@H](C)C(=O)N[C@@H](C)C(=O)N1)[C@@H](C)CC)C(=O)N[C@@H](CCCNC(=N)N)C(=O)N[C@@H](C)C(=O)N[C@@H](C)C(=O)N[C@@H](CCC(N)=O)C(=O)N[C@@H](CCC(=O)O)C(=O)N[C@@H](CCC(N)=O)C(=O)N[C@@H](CCC(N)=O)C(=O)N[C@@H](CCC(=O)O)C(=O)N[C@@H](CCCCN)C(=O)N[C@@H](CC(N)=O)C(=O)N[C@@H](CCC(=O)O)C(=O)N[C@@H](C)C(=O)N[C@@H](CC(C)C)C(=O)N[C@@H](CC(C)C)C(=O)N[C@@H](CCCNC(=N)N)C(N)=O) [peptide 73] | 60 fold
Ac-ACYAACIEALIRAAREQQEKNEAALR-NH2 (linker 2-6 via pXylylene; SMILES CC[C@H](C)[C@H](NC(=O)[C@H](CC(C)C)NC(=O)[C@H](C)NC(=O)[C@H](CCC(=O)O)NC(=O)[C@@H](NC(=O)[C@@H]1CSCc2ccc(cc2)CSC[C@H](NC(=O)[C@H](C)NC(C)=O)C(=O)N[C@@H](Cc2ccc(O)cc2)C(=O)N[C@@H](C)C(=O)N[C@@H](C)C(=O)N1)[C@@H](C)CC)C(=O)N[C@@H](CCCNC(=N)N)C(=O)N[C@@H](C)C(=O)N[C@@H](C)C(=O)N[C@@H](CCCNC(=N)N)C(=O)N[C@@H](CCC(=O)O)C(=O)N[C@@H](CCC(N)=O)C(=O)N[C@@H](CCC(N)=O)C(=O)N[C@@H](CCC(=O)O)C(=O)N[C@@H](CCCCN)C(=O)N[C@@H](CC(N)=O)C(=O)N[C@@H](CCC(=O)O)C(=O)N[C@@H](C)C(=O)N[C@@H](C)C(=O)N[C@@H](CC(C)C)C(=O)N[C@@H](CCCNC(=N)N)C(N)=O) [peptide 84] | 9 fold
Ac-A[hCys]YAA[hCys]IEALIRAAQEQQEKNEAALR-NH2 (linker 2-6 via B1; reading uncertain) [peptide 77] | 39 fold
Ac-A[hCys]YAA[hCys]IEALIRAAQEQQEKNEAALR-NH2 (linker 2-6 via B21; SMILES CC[C@H](C)[C@H](NC(=O)[C@H](CC(C)C)NC(=O)[C@H](C)NC(=O)[C@H](CCC(=O)O)NC(=O)[C@@H](NC(=O)[C@@H]1CCSCc2ccc3ccc(cc3c2)CSCC[C@H](NC(=O)[C@H](C)NC(C)=O)C(=O)N[C@@H](Cc2ccc(O)cc2)C(=O)N[C@@H](C)C(=O)N[C@@H](C)C(=O)N1)[C@@H](C)CC)C(=O)N[C@@H](CCCNC(=N)N)C(=O)N[C@@H](C)C(=O)N[C@@H](C)C(=O)N[C@@H](CCC(N)=O)C(=O)N[C@@H](CCC(=O)O)C(=O)N[C@@H](CCC(N)=O)C(=O)N[C@@H](CCC(N)=O)C(=O)N[C@@H](CCC(=O)O)C(=O)N[C@@H](CCCCN)C(=O)N[C@@H](CC(N)=O)C(=O)N[C@@H](CCC(=O)O)C(=O)N[C@@H](C)C(=O)N[C@@H](C)C(=O)N[C@@H](CC(C)C)C(=O)N[C@@H](CCCNC(=N)N)C(N)=O) [peptide 78] | 61 fold
Ac-A[hCys]YAA[hCys]IEALIRKAQEQQEKNEAALR-NH2 (linker 2-6 via B21; SMILES CC[C@H](C)[C@H](NC(=O)[C@@H]1CCSCc2ccc3ccc(cc3c2)CSCC[C@H](NC(=O)[C@H](C)NC(C)=O)C(=O)N[C@@H](Cc2ccc(O)cc2)C(=O)N[C@@H](C)C(=O)N[C@@H](C)C(=O)N1)C(=O)N[C@@H](CCC(=O)O)C(=O)N[C@@H](C)C(=O)N[C@@H](CC(C)C)C(=O)N[C@H](C(=O)N[C@@H](CCCNC(=N)N)C(=O)N[C@@H](CCCCN)C(=O)N[C@@H](C)C(=O)N[C@@H](CCC(N)=O)C(=O)N[C@@H](CCC(=O)O)C(=O)N[C@@H](CCC(N)=O)C(=O)N[C@@H](CCC(N)=O)C(=O)N[C@@H](CCC(=O)O)C(=O)N[C@@H](CCCCN)C(=O)N[C@@H](CC(N)=O)C(=O)N[C@@H](CCC(=O)O)C(=O)N[C@@H](C)C(=O)N[C@@H](C)C(=O)N[C@@H](CC(C)C)C(=O)N[C@@H](CCCNC(=N)N)C(N)=O)[C@@H](C)CC) [peptide 80] | 40 fold
Butyryl-ECYLACIEELIRKAQEQQEKNEAALR-NH2 (linker 2-6 via pXylylene; SMILES CCCC(=O)N[C@@H](CCC(=O)O)C(=O)N[C@H]1CSCc2ccc(cc2)CSC[C@@H](C(=O)N[C@H](C(=O)N[C@@H](CCC(=O)O)C(=O)N[C@@H](CCC(=O)O)C(=O)N[C@@H](CC(C)C)C(=O)N[C@H](C(=O)N[C@@H](CCCNC(=N)N)C(=O)N[C@@H](CCCCN)C(=O)N[C@@H](C)C(=O)N[C@@H](CCC(N)=O)C(=O)N[C@@H](CCC(=O)O)C(=O)N[C@@H](CCC(N)=O)C(=O)N[C@@H](CCC(N)=O)C(=O)N[C@@H](CCC(=O)O)C(=O)N[C@@H](CCCCN)C(=O)N[C@@H](CC(N)=O)C(=O)N[C@@H](CCC(=O)O)C(=O)N[C@@H](C)C(=O)N[C@@H](C)C(=O)N[C@@H](CC(C)C)C(=O)N[C@@H](CCCNC(=N)N)C(N)=O)[C@@H](C)CC)[C@@H](C)CC)NC(=O)[C@H](C)NC(=O)[C@H](CC(C)C)NC(=O)[C@H](Cc2ccc(O)cc2)NC1=O) [peptide 85] | 3 fold
Ac-[dA]CYAACIEALIRAAQEQQEKNEAAL[dR]-NH2 (linker 2-6 via 2,7‑dimethylnaphthyl) [peptide 76] | 48 fold
Ac-ECYAACIEALIRAAQEQQEKNEAALR-NH2 (linker 2-6 via pXylylene; SMILES CC[C@H](C)[C@H](NC(=O)[C@H](CC(C)C)NC(=O)[C@H](C)NC(=O)[C@H](CCC(=O)O)NC(=O)[C@@H](NC(=O)[C@@H]1CSCc2ccc(cc2)CSC[C@H](NC(=O)[C@H](CCC(=O)O)NC(C)=O)C(=O)N[C@@H](Cc2ccc(O)cc2)C(=O)N[C@@H](C)C(=O)N[C@@H](C)C(=O)N1)[C@@H](C)CC)C(=O)N[C@@H](CCCNC(=N)N)C(=O)N[C@@H](C)C(=O)N[C@@H](C)C(=O)N[C@@H](CCC(N)=O)C(=O)N[C@@H](CCC(=O)O)C(=O)N[C@@H](CCC(N)=O)C(=O)N[C@@H](CCC(N)=O)C(=O)N[C@@H](CCC(=O)O)C(=O)N[C@@H](CCCCN)C(=O)N[C@@H](CC(N)=O)C(=O)N[C@@H](CCC(=O)O)C(=O)N[C@@H](C)C(=O)N[C@@H](C)C(=O)N[C@@H](CC(C)C)C(=O)N[C@@H](CCCNC(=N)N)C(N)=O) [peptide 74] | 33 fold
Ac-ACYAA[dC]IEALIRAAQEQQEKNEAALR-NH2 (linker 2-6 via pXylylene; not fully specified) [peptide 83] | 6 fold
